Measurements from patent US20240158448A1 (University of Pennsylvania, published 2024).
Positions of bridges follow the written chain, without caps; N, C: chain ends. No end group written: not given here.

T1: mouse SIRPα expressed on J774A.1 macrophages (mouse, UniProt P97797 32-513)
T1 sequence (looked up): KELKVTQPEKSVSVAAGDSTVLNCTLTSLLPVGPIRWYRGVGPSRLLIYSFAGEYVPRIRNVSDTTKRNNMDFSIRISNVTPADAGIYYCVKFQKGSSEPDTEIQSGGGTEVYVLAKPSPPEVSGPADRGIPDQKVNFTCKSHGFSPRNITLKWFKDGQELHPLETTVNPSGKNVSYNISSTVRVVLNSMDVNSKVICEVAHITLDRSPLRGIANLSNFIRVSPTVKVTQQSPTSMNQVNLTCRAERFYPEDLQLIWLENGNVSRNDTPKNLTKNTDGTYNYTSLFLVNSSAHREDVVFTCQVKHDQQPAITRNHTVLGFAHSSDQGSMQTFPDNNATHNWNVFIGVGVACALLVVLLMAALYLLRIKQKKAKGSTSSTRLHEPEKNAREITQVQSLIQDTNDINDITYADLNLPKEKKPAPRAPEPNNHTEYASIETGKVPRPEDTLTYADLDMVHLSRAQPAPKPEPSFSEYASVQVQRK

T2: mouse SIRPα expressed on primary bone marrow derived macrophages (C57BL6/J) (mouse, UniProt P97797 32-513)
T2 sequence (looked up): T1 sequence (looked up)

B1: nS-wt (nano-Self wild-type peptide) (peptide)
peptide: VTELTREG-NH2
B2: nS-F-Cyc (peptide)
peptide: CVTELFREGC
HELM: PEPTIDE1{C.V.T.E.L.F.R.E.G.C.[am]}$PEPTIDE1,PEPTIDE1,1:R3-10:R3$$$V2.0; N-terminus assumed
SMILES: CC(C)C[C@@H]1NC(=O)[C@H](CCC(=O)O)NC(=O)[C@H]([C@@H](C)O)NC(=O)[C@H](C(C)C)NC(=O)[C@@H](N)CSSC[C@@H](C(N)=O)NC(=O)CNC(=O)[C@H](CCC(=O)O)NC(=O)[C@H](CCCNC(=N)N)NC(=O)[C@H](Cc2ccccc2)NC1=O
B3: nS-Cyc (cyclic nano-Self peptide) (peptide)
peptide: CVELTREGC-NH2
modifications: disulfide 1-9; not fully specified
B4: nS-F (peptide)
peptide: VTELFREG-NH2
B5: nS-FF, (VTELFREG-PEG5)2-K (peptide)
peptide: VTELFREG
chain: K
modifications: not fully specified; core Lys carrying one PEG5-peptide arm on each of its two amines; C-terminal amide; C-terminus joined through a PEG5 linker to one of the two amines of the core Lys

Columns and labels:
Experiment in all cases: cell-based or functional assay
[1] = target: T1, mouse SIRPα expressed on J774A.1 …
[2] = target: human SIRPα expressed on cells (PMA-differentiated THP-1 macrophages; A549 cells) (human, UniProt P78324 31-504)
[3] = target: T2, mouse SIRPα expressed on primary bone …

| Binder | increase in THP-1 macrophage phagocytosis of opsonized RBCs relative to nS-wt [2] | maximum phagocytosis of opsonized RBCs by THP-1 macrophages [2] | maximum phagocytosis of opsonized B16 cells by mouse BMDMs [3] | other results |
| --- | --- | --- | --- | --- |
| B1 |  |  |  | fold decrease in effective activity in the mouse macrophage phagocytosis assay relative to the human assay [1]: ~100 fold |
| B2 | ~25% | ~25% | ~25% |  |
| B3 |  | ~25% | ~25% |  |
| B4 | ~25% | ~25% | ~25% | phagocytosis of opsonized RBCs by J774A.1 macrophages, relative to nS-X [1]: 3 fold |
| B5 |  |  |  | activity relative to nS-wt in phagocytosis of opsonized RBCs [2]: > 100 fold; increase in phagocytic macrophages relative to anti-CD47 on opRBC [2]: ~10% |
